B1: PGT-135 (antibody, V domains shown)
VH: QLQMQESGPGLVKPSETLSLSCTVSGDSIRGGEWGDKDYHWGWVRHSAGKGLEWIGSIHWRGTTHYKESLRRRVSMSIDTSRNWFSLRLASVTAADTAVYFCARHRHHDVFMLVPIAGWFDVWGPGVQVTVSS
VL: EIVMTQSPDTLSVSPGETVTLSCRASQNINKNLAWYQYKPGQSPRLVIFETYSKIAAFPARFVASGSGTEFTLTINNMQSEDVAVYYCQQYEEWPRTFGQGTKVDIK
B2: PGT-131 (antibody, V domains shown)
VH: QVQLQESGPGLVKPSETLSLTCTVSGDSINTGHHYWGWVRQVPGKGPEWIAHIHYNTAVLHNPALKSRVTISIFTLKNLITLSLSNVTAADTAVYFCVRSGGDILYYIEWQKPHWFYPWGPGILVTVSS
VL: QSALTQPPSASGSLGQSLTISCSGTGSDIGSWNFVSWYQQFPGRAPNLIIFEVNRRRSGVPDRFSGSKSGNTASLTVSGLRSEDEAEYFCSSLSGRWDIVFGGGTKVTVL

molecular target: HIV-1 JR-CSF Env I307A (HIV-1 JR-CSF) (UniProt P20871); test: cell-based or functional assay

Binder | Fold IC50 increase relative to wild-type
B1 | 0.3 fold
B2 | > 170 fold

molecular target: HIV-1 JR-CSF Env K343A (HIV-1 isolate JR-CSF) (UniProt P20871); test: cell-based or functional assay

Binder | Fold IC50 increase relative to wild-type
B1 | 1.1 fold
B2 | 1.1 fold

molecular target: HIV-1 NL43 envelope glycoprotein (Env) (HIV-1); test: cell-based or functional assay

Binder | IC50 neutralization
B1 | 6.79 µg/mL

molecular target: HIV-1 MGRM-C-028 envelope glycoprotein (Env) (HIV-1); test: cell-based or functional assay

Binder | IC50 neutralization
B1 | 2.16 µg/mL

molecular target: HIV-1 JR-CSF Env R315A (HIV-1 isolate JR-CSF) (UniProt P20871); test: cell-based or functional assay

Binder | Fold IC50 increase relative to wild-type
B1 | 1.8 fold
B2 | 0.7 fold

molecular target: HIV-1 JR-CSF Env S334A (HIV-1 isolate JR-CSF) (UniProt P20871); test: cell-based or functional assay

Binder | Fold IC50 increase relative to wild-type
B1 | > 30 fold
B2 | 0.4 fold

molecular target: HIV-1 JR-CSF Env H330A (HIV-1 isolate JR-CSF) (UniProt P20871); test: cell-based or functional assay

Binder | Fold IC50 increase relative to wild-type
B1 | > 250 fold
B2 | 0.5 fold

molecular target: HIV-1 JR-CSF Env T202A (HIV-1 JR-CSF) (UniProt P20871); test: cell-based or functional assay

Binder | Fold IC50 increase relative to wild-type
B1 | 1.8 fold
B2 | 2.7 fold

molecular target: HIV-1 JR-CSF Env N386A (HIV-1 isolate JR-CSF) (UniProt P20871); test: cell-based or functional assay

Binder | Fold IC50 increase relative to wild-type
B1 | 0.3 fold
B2 | 1.1 fold

molecular target: Env of the clade G HIV-1 pseudoviruses of the cross-clade 162-pseudovirus panel (n = 15); test: cell-based or functional assay

Binder | Median IC50 against viruses neutralized with an IC50 <50 µg/ml
B1 | 0.14 µg/mL
B2 | 3.54 µg/mL

molecular target: HIV-1 JR-CSF Env R350A (HIV-1 isolate JR-CSF) (UniProt P20871); test: cell-based or functional assay

Binder | Fold IC50 increase relative to wild-type
B1 | 0.9 fold
B2 | 1.3 fold

molecular target: Env of the clade D HIV-1 pseudoviruses of the cross-clade 162-pseudovirus panel (n = 25); test: cell-based or functional assay

Binder | Median IC50 against viruses neutralized with an IC50 <50 µg/ml
B1 | 1.09 µg/mL
B2 | 0.85 µg/mL

molecular target: HIV-1 JR-CSF Env S306A (HIV-1 JR-CSF) (UniProt P20871); test: cell-based or functional assay

Binder | Fold IC50 increase relative to wild-type
B1 | 0.4 fold
B2 | 0.7 fold

molecular target: HIV-1 JR-CSF Env N276A (HIV-1 JR-CSF) (UniProt P20871); test: cell-based or functional assay

Binder | Fold IC50 increase relative to wild-type
B1 | 2.5 fold
B2 | 0.8 fold

molecular target: HIV-1 92BR020 envelope glycoprotein (Env) (HIV-1); test: cell-based or functional assay

Binder | IC50 neutralization
B1 | 0.104 µg/mL

molecular target: HIV-1 JR-CSF Env P299A (HIV-1 JR-CSF) (UniProt P20871); test: cell-based or functional assay

Binder | Fold IC50 increase relative to wild-type
B1 | 0.36 fold
B2 | 2 fold

molecular target: HIV-1 JR-CSF Env I323A (HIV-1 isolate JR-CSF) (UniProt P20871); test: cell-based or functional assay

Binder | Fold IC50 increase relative to wild-type
B1 | 1.5 fold
B2 | 38 fold

molecular target: HIV-1 JR-CSF Env S199A (HIV-1 JR-CSF) (UniProt P20871); test: cell-based or functional assay

Binder | Fold IC50 increase relative to wild-type
B1 | 0.3 fold
B2 | 1.6 fold

molecular target: HIV-1 JR-CSF Env P313A (HIV-1 JR-CSF) (UniProt P20871); test: cell-based or functional assay

Binder | Fold IC50 increase relative to wild-type
B1 | 0.5 fold
B2 | 0.52 fold

molecular target: HIV-1 JR-CSF Env N411A (HIV-1 (isolate JR-CSF)) (UniProt P20871); test: cell-based or functional assay

Binder | Fold IC50 increase relative to wild-type
B1 | 0.2 fold
B2 | 0.6 fold

molecular target: HIV-1 JR-CSF Env I420A (HIV-1 (isolate JR-CSF)) (UniProt P20871); test: cell-based or functional assay

Binder | Fold IC50 increase relative to wild-type
B1 | 1.4 fold
B2 | 153 fold

molecular target: HIV-1 JR-CSF Env W395A (HIV-1 (isolate JR-CSF)) (UniProt P20871); test: cell-based or functional assay

Binder | Fold IC50 increase relative to wild-type
B1 | 0.6 fold
B2 | 0.5 fold

molecular target: HIV-1 JR-CSF Env T297A (HIV-1 JR-CSF) (UniProt P20871); test: cell-based or functional assay

Binder | Fold IC50 increase relative to wild-type
B1 | > 30 fold
B2 | 1.2 fold

molecular target: HIV-1 JR-CSF Env T394A (HIV-1 (isolate JR-CSF)) (UniProt P20871); test: cell-based or functional assay

Binder | Fold IC50 increase relative to wild-type
B1 | > 75 fold
B2 | 0.9 fold

molecular target: HIV-1 JR-CSF Env T303A (HIV-1 JR-CSF) (UniProt P20871); test: cell-based or functional assay

Binder | Fold IC50 increase relative to wild-type
B1 | 0.3 fold
B2 | > 170 fold

molecular target: HIV-1 Env of isolate MGRM-C-026 (HIV-1); test: cell-based or functional assay

Binder | Primary Neutralization Index (B cell culture well 5343 B8) | Primary Neutralization Index (B cell culture well 5344 E16) | Primary Neutralization Index (B cell culture well 5136 H1)
B1 | 6.5 | 3.6 | –
B2 | – | – | 1.2

molecular target: HIV-1 JR-CSF Env I309A (HIV-1 JR-CSF) (UniProt P20871); test: cell-based or functional assay

Binder | Fold IC50 increase relative to wild-type
B1 | 0.3 fold
B2 | 8.8 fold

molecular target: HIV-1 JR-CSF Env N295A (HIV-1 JR-CSF) (UniProt P20871); test: cell-based or functional assay

Binder | Fold IC50 increase relative to wild-type
B1 | > 18 fold
B2 | 2.1 fold

molecular target: HIV-1 JR-CSF Env T320A (HIV-1 isolate JR-CSF) (UniProt P20871); test: cell-based or functional assay

Binder | Fold IC50 increase relative to wild-type
B1 | 0.5 fold
B2 | 4.5 fold

molecular target: HIV-1 JR-CSF Env N396A (HIV-1 (isolate JR-CSF)) (UniProt P20871); test: cell-based or functional assay

Binder | Fold IC50 increase relative to wild-type
B1 | 1 fold
B2 | 0.9 fold

molecular target: HIV-1 JR-CSF Env D325A (HIV-1 isolate JR-CSF) (UniProt P20871); test: cell-based or functional assay

Binder | Fold IC50 increase relative to wild-type
B1 | 0.5 fold
B2 | > 170 fold

molecular target: HIV-1 JR-CSF Env I326A (HIV-1 isolate JR-CSF) (UniProt P20871); test: cell-based or functional assay

Binder | Fold IC50 increase relative to wild-type
B1 | 1.2 fold
B2 | 1.7 fold

molecular target: WT JR-FL gp120 (HIV-1 (isolate JR-FL)); test: ELISA on coated gp120; EC50 by nonlinear regression

Binder | EC50
B1 | 0.1 µg/mL
B2 | 0.4 µg/mL

molecular target: JR-FL gp120 ΔV1/ΔV2 (HIV-1 (isolate JR-FL)); test: as above

Binder | EC50
B1 | 0.1 µg/mL

— US20200024330A1
